This note sets out measurements from publication PMC8341956.

The experiment concerns the target nucleosome core particle (recombinant Xenopus laevis histone octamer on 147 bp 601 DNA) (Xenopus laevis). As to the kind of experiment: native gel or EMSA; HMGN1 variants incubated with AlexaFluor488-labelled nucleosome cores (50 nM) at 0.5:1, 1:1 and 2:1 HMGN1 per nucleosome; 10 mM Tris pH 7.5, 25 mM NaCl, 25 mM KCl, 0.2 mM DTT, 4% sucrose, on ice 20-30 min; 5% native PAGE, 0.5x TBE, 4 °C.

Consider “full-length recombinant HMGN1 (HMGN1_1–99, unmodified) (natural protein)”, for which the stoichiometry N (HMGN1 molecules per nucleosome) turned out to be 2.

For “semi-synthetic unmodified HMGN1 (natural protein)”, the stoichiometry N (HMGN1 molecules per nucleosome) is 2.
